Data as given in patent US20220146515A1 (XIAMEN INNODX BIOTECH, published 2022).

Key:
Test in all cases: competition ELISA, antibody preincubated with target, AMH-coated plate
[1] = molecular target: T1, human AMH36-47 short peptide, mutation site 41 (human)
T1 peptide: GLIFRADLDWPP
Description: (§1) 1. AMH antigen was diluted with carbonic acid buffer (20 mmol/L CB, pH 9.6) and then coated on a polyvinyl chloride plate. In the pretreatment, the antibody purified by the protein A column and the synthesized short peptides with different human AMH36-47 amino acid mutations were subjected to proportion incubation (100 ng/ml antibody: 50 ug/ml truncated antigen) for 30 minutes, that were test samples; the control sample was (100 ng/ml antibody: PBS) and incubated for 30 minutes, and then the test samples after incubation and the control sample were added to AMH antigen plate and incubated for 30 minutes, the plate was washed for 5 times, added with GAM-HRP (1/5000 dilution) and incubated for 30 minutes, the plate was washed for 5 times, and the substrate was added and incubated for 15 minutes. The values under wavelength of 450/620 were read by microplate reader, and the detected OD values were finally calculated and analyzed. The calculation formula was: (control sample OD value−test sample OD value)/control sample OD value, and the criterion for determination was as follows: a value lower than 90% indicated the corresponding amino acid was a key amino acid, and the mutation has a great impact on the reaction of antibody.

[2] = molecular target: T2, human AMH36-47 short peptide, mutation site 40 (human)
T2 peptide: GLIFAEDLDWPP
Description: as §1

[3] = molecular target: T3, human AMH36-47 short peptide, mutation site 45 (human)
T3 peptide: GLIFREDLDAPP
Description: as §1

[4] = molecular target: T4, human AMH36-47 short peptide, mutation site 44 (human)
T4 peptide: GLIFREDLAWPP
Description: as §1

[5] = molecular target: T5, human AMH36-47 short peptide, mutation site 37 (human)
T5 peptide: GAIFREDLDWPP
Description: as §1

[6] = molecular target: T6, human AMH36-47 short peptide, mutation site 39 (human)
T6 peptide: GLIAREDLDWPP
Description: as §1

[7] = molecular target: T7, human AMH36-47 short peptide, mutation site 42 (human)
T7 peptide: GLIFREALDWPP
Description: as §1

[8] = molecular target: T8, human AMH36-47 short peptide, mutation site 46 (human)
T8 peptide: GLIFREDLDWAP
Description: as §1

[9] = molecular target: T9, human AMH36-47 short peptide, mutation site 47 (human)
T9 peptide: GLIFREDLDWPA
Description: as §1

[10] = molecular target: T10, human AMH36-47 short peptide, mutation site 36 (human)
T10 peptide: ALIFREDLDWPP
Description: as §1

[11] = molecular target: T11, human AMH36-47 short peptide, mutation site 43 (human)
T11 peptide: GLIFREDADWPP
Description: as §1

[12] = molecular target: T12, human AMH36-47 short peptide, mutation site 38 (human)
T12 peptide: GLAFREDLDWPP
Description: as §1

B1: monoclonal antibody C9F2-2 (antibody, V domains shown)
VH: EVQLVESGGGLVKPGGSLKLSCAASGFAFSTYDMSWVRQTPEKRLEWVAYISPGGGATYYPDTVKGRFTISRDNAKNTLYLQMTSLKSEDTAMYYCAGRRDYYGMDYWGQGTSVTVSS
VL: DVVMTQTPLSLPVSLGDQASISCRSSQSLVHSNGNTYLHWYLQKPGQSPKLLIYKVSNRFSGVPDRFSGSGSGTDFTLKISRVEAEDLGVYFCSQSTHVPWTFGGGTKLEIK
notes: Mouse hybridoma antibody purified from ascites; the tie is indirect; also called hybridoma CCTCC NO: C2018183
- percent inhibition [1]: 7%
- percent inhibition [2]: 88%
- percent inhibition [3]: 100%
- percent inhibition [4]: 64%
- percent inhibition [5]: 97%
- percent inhibition [6]: 9%
- percent inhibition [7]: 98%
- percent inhibition [8]: 99%
- percent inhibition [9]: 99%
- percent inhibition [10]: 100%
- percent inhibition [11]: 94%
- percent inhibition [12]: 96%
